For 21 substances, IC50, A204 CAGA12 reporter gene assay results are on record in US20240197902A1.

Read-outs that look alike come from different tables or passages of the source.

Experiment in all cases: cell-based or functional assay
In experiment [1] the target is T1, BMP10 (UniProt O95393).
T1 sequence (looked up): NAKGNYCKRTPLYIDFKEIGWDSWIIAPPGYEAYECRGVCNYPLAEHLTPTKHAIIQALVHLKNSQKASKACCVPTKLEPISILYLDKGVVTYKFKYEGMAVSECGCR

Experiment [2] has as its target T2, BMP9 (UniProt Q9UK05).
T2 sequence (looked up): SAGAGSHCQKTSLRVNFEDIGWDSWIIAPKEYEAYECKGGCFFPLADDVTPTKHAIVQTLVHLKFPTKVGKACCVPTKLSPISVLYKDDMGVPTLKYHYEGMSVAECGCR

In experiment [3] the target is T3, GDF11 (UniProt O95390).
T3 sequence (looked up): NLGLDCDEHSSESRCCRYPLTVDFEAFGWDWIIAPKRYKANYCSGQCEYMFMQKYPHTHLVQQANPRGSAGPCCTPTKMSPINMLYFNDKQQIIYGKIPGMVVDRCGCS

The target in experiment [4] is T4, GDF8 (UniProt O14793).
T4 sequence (looked up): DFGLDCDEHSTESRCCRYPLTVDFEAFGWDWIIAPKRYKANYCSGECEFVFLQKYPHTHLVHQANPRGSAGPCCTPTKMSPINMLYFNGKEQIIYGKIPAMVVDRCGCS

The target in experiment [5] is T5, activin A (UniProt P08476).
T5 sequence (looked up): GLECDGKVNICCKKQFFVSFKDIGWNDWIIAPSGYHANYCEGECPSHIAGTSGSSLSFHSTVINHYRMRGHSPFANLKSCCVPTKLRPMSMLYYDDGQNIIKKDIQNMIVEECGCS

Experiment [6] addresses T6, activin B (UniProt P09529).
T6 sequence (looked up): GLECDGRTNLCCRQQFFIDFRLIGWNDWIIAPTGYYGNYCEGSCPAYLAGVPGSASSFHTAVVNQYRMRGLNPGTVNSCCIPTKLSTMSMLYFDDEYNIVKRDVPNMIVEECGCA

Experiment [7] has as its target T2, BMP9. This is another data set of the same source.
The target of experiment [8] is T3, GDF11. This is another data set of the same source.
Experiment [9] has as its target T5, activin A. The source holds these as a separate data set.
Experiment [10] has as its target BMP9 (UniProt Q9UK05). This is another data set of the same source.
The target in experiment [11] is GDF11 (UniProt O95390). This is another data set of the same source.
The target in experiment [12] is activin A (UniProt P08476). This is another data set of the same source.
Experiment [13] deals with BMP10 (UniProt O95393). The source holds these as a separate data set.
The target in experiment [14] is GDF11 (UniProt O95390). The source holds these as a separate data set.
In experiment [15] the target is GDF8 (UniProt O14793). This is another data set of the same source.
In experiment [16] the target is activin A (UniProt P08476). The source holds these as a separate data set.
Experiment [17] concerns the target activin B (UniProt P09529). This is another data set of the same source.

Chain of ActRIIB(20-134)-G1Fc (Fc fusion) (chain): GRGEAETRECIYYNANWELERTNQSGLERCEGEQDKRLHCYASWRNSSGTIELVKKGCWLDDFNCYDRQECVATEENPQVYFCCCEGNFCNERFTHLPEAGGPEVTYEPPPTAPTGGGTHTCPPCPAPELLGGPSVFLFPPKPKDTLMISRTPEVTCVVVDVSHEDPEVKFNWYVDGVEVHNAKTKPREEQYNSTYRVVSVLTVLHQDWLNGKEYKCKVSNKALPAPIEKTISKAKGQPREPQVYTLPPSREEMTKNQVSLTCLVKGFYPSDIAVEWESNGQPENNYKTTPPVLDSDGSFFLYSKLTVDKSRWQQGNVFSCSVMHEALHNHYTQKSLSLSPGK

In the case of ActRIIB(20-134)-G1Fc (Fc fusion), the IC50, A204 CAGA12 reporter gene assay in experiment [1] was 0.036 nM; in experiment [2], 1.82 nM; in experiment [3] it was 0.12 nM; in experiment [4], 0.95 nM; in [5], 0.05 nM; in experiment [6], 0.067 nM. The IC50, A204 CAGA12 reporter gene assay stood at 0.031 µg/mL in experiment [7], 0.009 µg/mL in experiment [8] and 0.008 µg/mL in experiment [9].
Regarding ActRIIB(F82I)-G1Fc (Fc fusion), the IC50, A204 CAGA12 reporter gene assay in experiment [10] stood at 0.277 µg/mL; in experiment [11], 0.009 µg/mL; in experiment [12], 0.011 µg/mL.
The like results for ActRIIB(F82K)-G1Fc (Fc fusion) were, in that order, 5 µg/mL, 0.015 µg/mL and 0.01 µg/mL.
Consider ActRIIB(F82T)-G1Fc (Fc fusion), for which the IC50, A204 CAGA12 reporter gene assay in experiment [13] turned out to be 0.07 nM; in experiment [14], 0.27 nM; in [15], 2.17 nM; in experiment [16], 0.1 nM; in experiment [17] it was 0.09 nM.
Turning to ActRIIB(K55A)-G1Fc (Fc fusion), the results for the IC50, A204 CAGA12 reporter gene assay in experiment [10], in experiment [11] and in [12] were 0.122 µg/mL, 0.011 µg/mL and 0.015 µg/mL, respectively.
The matching figures for ActRIIB(K55E)-G1Fc (Fc fusion): 0.29 µg/mL, 0.014 µg/mL and 0.019 µg/mL.
As to “variant ActRIIB-Fc polypeptide A24N (Fc fusion)”, the IC50, A204 CAGA12 reporter gene assay amounted to 0.409 µg/mL in experiment [7], 0.099 µg/mL in experiment [8] and 0.128 µg/mL in [9].
On to “variant ActRIIB-Fc polypeptide E50K (Fc fusion)”, for which the IC50, A204 CAGA12 reporter gene assay in experiment [7] stood at 0.721 µg/mL; in experiment [8], 0.18 µg/mL; in experiment [9] it was 0.132 µg/mL.
The matching figures for “variant ActRIIB-Fc polypeptide E50P (Fc fusion)”: 3 µg/mL, 0.638 µg/mL and 0.756 µg/mL.
As to “variant ActRIIB-Fc polypeptide E52A (Fc fusion)”, the IC50, A204 CAGA12 reporter gene assay in experiment [7] was found to be 0.359 µg/mL; in experiment [8], 0.071 µg/mL; in experiment [9] it was 0.198 µg/mL.
In the case of “variant ActRIIB-Fc polypeptide E52K (Fc fusion)”, the values for the IC50, A204 CAGA12 reporter gene assay in [7], in experiment [8] and in [9] were 10 µg/mL, 0.296 µg/mL and 0.762 µg/mL, respectively.
“variant ActRIIB-Fc polypeptide F82W (Fc fusion)”: the IC50, A204 CAGA12 reporter gene assay in [8] was determined as 0.276 µg/mL.
For the substance “variant ActRIIB-Fc polypeptide F82W/N83A (Fc fusion)”, the IC50, A204 CAGA12 reporter gene assay in experiment [7] came out at 40 µg/mL; in experiment [8], 0.389 µg/mL.
“variant ActRIIB-Fc polypeptide K55D (Fc fusion)”: the figures for the IC50, A204 CAGA12 reporter gene assay in [7], in experiment [8] and in experiment [9] were 5.5 µg/mL, 0.365 µg/mL and 0.396 µg/mL, respectively.
In the case of “variant ActRIIB-Fc polypeptide K55R (Fc fusion)”, the values for the IC50, A204 CAGA12 reporter gene assay in experiment [7], in experiment [8] and in experiment [9] were 0.777 µg/mL, 0.318 µg/mL and 0.206 µg/mL, respectively.
With “variant ActRIIB-Fc polypeptide K74R (Fc fusion)”, the IC50, A204 CAGA12 reporter gene assay in [7] turned out to be 0.165 µg/mL; in [8], 0.045 µg/mL.
Consider “variant ActRIIB-Fc polypeptide L79K (Fc fusion)”, for which, in [8], the IC50, A204 CAGA12 reporter gene assay was 0.477 µg/mL.
On the same count and under the same terms, in the case of “variant ActRIIB-Fc polypeptide L79R (Fc fusion)” it was 0.234 µg/mL.
As to “variant ActRIIB-Fc polypeptide R40A (Fc fusion)”, the IC50, A204 CAGA12 reporter gene assay in experiment [7] worked out at 1.21 µg/mL; in experiment [8] it was 0.591 µg/mL.
With “variant ActRIIB-Fc polypeptide Y60K (Fc fusion)”, the IC50, A204 CAGA12 reporter gene assay in experiment [8] amounted to 0.414 µg/mL.
On the same count and under the same terms, with “variant ActRIIB-Fc polypeptide Y60P (Fc fusion)” the figure was 0.544 µg/mL.
